From patent publication US7094891 (CENTER FOR TRANSLATION RESEARCH IN CANCER, dated 2006) come the findings set out here.

For this assay, the target named is T1, Human Replication Protein A 32 (RPA32) (human, UniProt P15927 1-270, limits assumed).
T1 construct: Used in the yeast two-hybrid system; also called Replication Protein A 32KD subunit; 32-kDa middle subunit of RPA
As to the kind of experiment: yeast two-hybrid system (method named in paragraph 31).

T1 sequence (P15927 whole entry): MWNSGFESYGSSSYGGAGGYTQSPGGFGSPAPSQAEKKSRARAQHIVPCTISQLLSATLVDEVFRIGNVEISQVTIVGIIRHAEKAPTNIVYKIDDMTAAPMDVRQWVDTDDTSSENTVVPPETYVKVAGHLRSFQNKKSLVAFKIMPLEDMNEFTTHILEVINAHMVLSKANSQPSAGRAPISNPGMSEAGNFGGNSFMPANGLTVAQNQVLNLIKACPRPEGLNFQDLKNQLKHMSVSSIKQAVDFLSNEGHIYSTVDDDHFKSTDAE

B1: replication protein A binding transcriptional activator 1 (RBT1) (other)
chain: MEGGLKRKHSDLEEEEERWEWSPAGLQSYQQALLRISLDKVQRSLGPRAPSLRRHVLIHNTLQQLQAALRLAPAPALPPEPLFLGEEDFSLSATIGSILRELDTSMDGTEPPQNPVTPLGLQNEVPPQPDPVFLEALSSRYLGDSGLDDFFLDIDTSAVEKEPARAPPEPPHNLFCAPGSWEWNELDHIMEIILGS
notes: Open reading frame of 196 amino acids
Take B1: the binding result is “binds”.
